Where two headings read alike, the source gives them in different places.
Tests used:
RSV-F.mmh [1] = target: T1, RSV-F.mmh (Respiratory Syncytial Virus); test: SPR (Biacore), mAb captured via Fc, soluble RSV-F.mmh injected, 25 C
T1 construct: also called recombinant RSV-F; soluble monomeric RSV-F
Method: Measurements were conducted on a Biacore 4000 or T-200 instrument. […] All Biacore binding studies were performed in HBST running buffer (0.01 M HEPES pH 7.4, 0.15 M NaCl, 3 mM EDTA, 0.005% v/v surfactant P20). Different concentrations of RSV-F.mmh prepared in HBST running buffer were injected over the anti-RSV-F monoclonal antibody captured surface at a flow rate of 30 μl/min (Biacore 4000) or at a flow rate of 50 μl/min (Biacore T-200) and the association of RSV-F.mmh to captured monoclonal antibody was monitored for 6 min or 3 min respectively. The dissociation of RSV-F.mmh from the monoclonal antibody in HBST running buffer was monitored for 8-10 min at 25° C. Kinetic association (kₐ) and dissociation (kd) rate constants were determined by processing and fitting the data to a 1:1 binding model using Scrubber 2.0 curve fitting software. Binding dissociation equilibrium constants (KD) and dissociative half-lives (t½) were calculated from the kinetic rate constants as: KD (M)=kd/kₐ; and t_{1/2} (min)=(ln 2/(60*kd).

[2] = target: T2, RSV-F of RSV subtype A strain A2 (1540) (respiratory syncytial virus subtype A, …, UniProt P03420 26-574); test: cell-based or functional assay
RSV-F.mmh [3] = target: T1, RSV-F.mmh; test: SPR (Biacore), mAb captured via Fc, soluble RSV-F.mmh injected, 25 C; remark: listed apart in the source
[4] = target: RSV-F of RSV subtype B strain 9320 (respiratory syncytial virus subtype B, …); test: cell-based or functional assay
[5] = target: RSV-F of RSV subtype B strain 1580 (respiratory syncytial virus subtype B, …); test: cell-based or functional assay
[6] = target: RSV-F of RSV subtype A strain Long (respiratory syncytial virus subtype A, …, UniProt P12568 26-574); test: cell-based or functional assay
[7] = target: T2, RSV-F of RSV subtype A strain A2 (1540); test: cell-based or functional assay; remark: listed apart in the source

| Binder | Kd (RSV-F.mmh [1]) [nM] | koff (RSV-F.mmh [1]) [s⁻¹] | kon (RSV-F.mmh [1]) [M⁻¹ s⁻¹] | t½ (RSV-F.mmh [1]) [h] | IC50 [pM] for RSV A2 Neutralization, Trial 1 [2] [pM] | IC50 [pM] for RSV A2 Neutralization, Trial 2 [2] [pM] | IC50 [pM] for RSV A2 Neutralization, Trial 3 [2] [pM] | other results |
| --- | --- | --- | --- | --- | --- | --- | --- | --- |
| H1M3627N (antibody, V domains shown) VH: EVQLVESGGGLVQPGGSLRLSCAASGFTISNYEMNWVRQAPGKGLEWVSYISTSGITIYYADSVQGRFTISRDNAKNSLYLQLNSLRAEDTAVYYCARGYCTNGVCYPHYYYSDMDVWGQGTTVTVSS VL: DIQMTQSPSSLSASVGDRLTITCRASQTISTYLNWFQQKVGNAPKLLIYSTSSLQSGVPARFSGSGSGTDFTLTISSLQPEDFATYYCQQSYSSPPTFGQGTKVEIK | 2.02 | 0.000523 | 259000 | 0.367 | 4 | 4 | 5 | IC50 [pM] for RSV A2 Neutralization, Trial 6 [2]: 10 pM |
| H1H3627N (antibody, V domains shown) VH: EVQLVESGGGLVQPGGSLRLSCAASGFTISNYEMNWVRQAPGKGLEWVSYISTSGITIYYADSVQGRFTISRDNAKNSLYLQLNSLRAEDTAVYYCARGYCTNGVCYPHYYYSDMDVWGQGTTVTVSS VL: DIQMTQSPSSLSASVGDRLTITCRASQTISTYLNWFQQKVGNAPKLLIYSTSSLQSGVPARFSGSGSGTDFTLTISSLQPEDFATYYCQQSYSSPPTFGQGTKVEIK | – | – | – | – | – | – | – | Kd (RSV-F.mmh [3]): 0.581 nM; koff (RSV-F.mmh [3]): 0.000149 s⁻¹; kon (RSV-F.mmh [3]): 256000 M⁻¹ s⁻¹; t½ (RSV-F.mmh [3]): 1.3 h; IC50 [pM] for RSV A2 Neutralization, Trial 7 [2]: 3 pM; RSV-9320 Neutral. IC50 [pM] [4]: 11 pM; RSV-9320 neutralization, Fold Improvement Relative to Control 1 [4]: 42 fold; RSV - 1580 Neutral. IC50 [pM] [5]: 6.7 pM; RSV - 1580 neutralization, Fold Improvement Relative to Control 1 [5]: 55 fold; RSV-Long Neutral. IC50 [pM] [6]: 7.3 pM; RSV-Long neutralization, Fold Improvement Relative to Control 1 [6]: 73 fold; RSV-A2 (1540) Neutral. IC50 [pM] [7]: 2.6 pM; RSV-A2 (1540) neutralization, Fold Improvement Relative to Control 1 [7]: 138 fold |
| H1M3624N (antibody, V domains shown, also called H1M2634N) VH: QVQLEQSGAEVKKPGTSVRISCKASGDIFTGYYMNWVRQAPGQGLEWMGWINTNSGGTYFSQRFQGRVTLTRDTSIRTAYMELSRLRSDDTAVYYCARMFYDILTGSDVFDIWGQGTMVTVSS VL: DIQMTQSPSSLSASVGDRVTITCRASQDIRNDLGWYHQKPGKAPKCLIYGASSLQSGVPSRFSGSGSGTEFTLTISSLQPEDFATYYCLQHKNYMYTFGQGTKLEIK | 1.02 | 0.000183 | 179000 | 1.05 | 540 | 270 | 92 | – |
| H1M3622N (antibody, V domains shown) VH: QVQLQQWGAGLLKPSETLSLTCAVYGGSLSDYYWSWIRQPPGKGLEWIGEINHSGDTNYDPSLKSRLTISVDTSKNQFSLKLNSVTAADTAVYYCASLYFNFWMWGRGALVTVSS VL: DIVMTQTPLSSPVILGQPASISCRSSQSLVYSDGNTYLSWLQQRPGQPPRLLIYKISNRFSGVPDRFSGSGTGTDFTLKISRVEAEDVGIYYCMQTTQFPLTFGGGTKVEIK | 2.38 | 9.13e-05 | 38400 | 2.12 | 320 | 82 | – | – |

Reference: US20140271653A1 (Regeneron, published 2014)
